Consider one molecule from patent EP4678184A2 (CREATE Medicines, Inc., dated 2026).

The assay concerns the target T1, Alexa488 conjugated human CD5 protein (human, UniProt P06127 25-372, limits assumed, Alexa488 conjugated (site not stated)).
T1 sequence (looked up): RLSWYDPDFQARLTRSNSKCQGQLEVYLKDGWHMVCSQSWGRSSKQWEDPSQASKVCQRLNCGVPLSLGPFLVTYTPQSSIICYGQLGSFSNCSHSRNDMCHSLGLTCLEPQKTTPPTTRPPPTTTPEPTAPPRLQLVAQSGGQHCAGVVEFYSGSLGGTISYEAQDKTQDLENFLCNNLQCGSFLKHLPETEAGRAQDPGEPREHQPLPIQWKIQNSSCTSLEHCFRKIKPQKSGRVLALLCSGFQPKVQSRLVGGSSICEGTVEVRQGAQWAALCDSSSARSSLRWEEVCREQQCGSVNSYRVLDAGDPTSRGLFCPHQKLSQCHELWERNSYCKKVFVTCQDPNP
The experiment in a line: flow cytometry, labelled soluble CD5 on electroporated CD14+ monocytes, 24, 48 and 72 hours post thaw. Background: Flow cytometry measures light scatter and fluorescence of single cells or particles in a stream.

B1: CD5-CAR (anti-CD5 chimeric antigen receptor on electroporated CD14+ monocytes, Example 15) (receptor, not shown: small tags and cut ends)
chain: EIQLVQSGGGLVKPGGSVRISCAASGYTFTNYGMNWVRQAPGKGLEWMGWINTHTGEPTYADSFKGRFTFSLDDSKNTAYLQINSLRAEDTAVYFCTRRGYDWYFDVWGQGTTVTVSSGGGGSGGGGSGGGGSDIQMTQSPSSLSASVGDRVTITCRASQDINSYLSWFQQKPGKAPKTLIYRANRLESGVPSRFSGSGSGTDYTLTISSLQYEDFGIYYCQQYDESPWTFGGGTKLEIK
notes: also called CD5-CAR monocytes
Consider B1, for which the binding result was “binds”.
